Laboratory results: US11690918B2, “Pyrrolobenzodiazepine-anti-CD22 antibody conjugates” (ADC THERAPEUTICS S.A., priority 2012, dated 2023)

How the values were obtained:
SU-DHL-1 cells = test: In vitro cytotoxicity of ADCs, SU-DHL-1 (CD22 -ve control); format: cell-based; details: 4 days incubation, Alamar Blue
Experimental: (§1) WSU-DLCL2 and SU-DHL-1 cells were from the Leibniz Institute DSMZ-German Collection of Microorganisms and Cell Cultures. Ramos and Daudi cells were from the American Type Culture Collection. Cell culture medium was RPMI 1640 supplemented with L-Glutamine and 10% FBS. Cells were grown at 37° C., 5% CO2, in a humidified incubator.
(§2) The concentration and viability of cultures of suspended cells (at up to 1×10^6/ml) were determined by mixing 1:1 with Trypan blue and counting clear (live)/blue (dead) cells with a haemocytometer. The cell suspension was diluted to the required seeding density (generally 10^5/ml) and dispensed into 96-well flat bottomed plates. For Alamar blue assay, 100 μl/well was dispensed in black-well plates. […] After incubation for 4 days, cell viability was measured by either Alamar blue or MTS assay.
(§3) AlamarBlue® (Invitrogen, catalogue number DAL1025) was dispensed (20 μl per well) into each well and incubated for 4 hours at 37° C. in the CO2-gassed incubator. Well fluorescence was measured at excitation 570 nm, emission 585 nm. Cell survival (%) was calculated from the ratio of mean fluorescence in the 4 ADC-treated wells compared to the mean fluorescence in the 4 control wells (100%).
(§4) MTS (Promega, catalogue number G5421) was dispensed (20 μl per well) into each well and incubated for 4 hours at 37° C. in the CO2-gassed incubator. Absorbance was measured at 490 nm. […]

Daudi cells = test: In vitro cytotoxicity of ADCs, Daudi; format: cell-based; details: FIG. 1, Alamar Blue
Experimental: as §1, §2, §3, §4

Ramos cells = test: In vitro cytotoxicity of ADCs, Ramos; format: cell-based, human; details: FIG. 1, Alamar Blue
Experimental: as §1, §2, §3, §4

Ramos xenograft = test: In vivo anti-tumour activity, Ramos mouse xenograft model; details: NCr nu/nu mice, single dose 1.0 mg/kg IV, FIG. 3
Experimental: The CD22+(ve) human Burkitt's lymphoma-derived cell line Ramos was used in a mouse xenograft model to test the in vivo efficacy of the Epratuzumab-A ADC. As a non-CD22-binding control, the anti-HIV gp120 antibody, B12, linked to A was used in the same model.
Procedures: • Set up CR female NCr nu/nu mice with l× Ramos-SPN tumor cells in 0% Matrigel sc in flank. • Cell Injection Volume is 0.1 mL/mouse. • Age at Start Date: 8 to 12 weeks. • Perform a pair match when tumors reach an average size of 100-150 mm^3 and begin treatment. • Body Weight: qd×5 then bi-wk to end • Caliper Measurement: bi-wk to end • Report any adverse reactions or death immediately. • Any individual animal with a single observation of >30% body weight loss or three consecutive measurements of >25% body weight loss will be euthanized. • Any group with two measurements of mean body weight loss of >20% or >10% mortality will stop dosing. The group is not euthanized and recovery is allowed. Within a group with >20% weight loss, individuals hitting the individual body weight loss endpoint will be euthanized. […] Animals are to be monitored individually. […]
For the calculation of group mean tumor volumes the following rule was applied: when an animal exited the study due to tumor size, the final tumor volume recorded for the animal was included with the data used to calculate the mean volume at subsequent time points. […]

WSU-DLCL2 cells = test: In vitro cytotoxicity of ADCs, WSU-DLCL2; format: cell-based; details: FIG. 1, Alamar Blue
Experimental: as §1, §2, §3, §4

B1: Epratuzumab-A: ADC targeted to CD22, generated by conjugating anti-CD22 antibody Epratuzumab to warhead-linker A (conjugate)
VH: QVQLVQSGAEVKKPGSSVKVSCKASGYTFTSYWLHWVRQAPGQGLEWIGYINPRNDYTEYNQNFKDKATITADESTNTAYMELSSLRSEDTAFYFCARRDITTFYWGQG
VL: DIQLTQSPSSLSASVGDRVTMSCKSSQSVLYSANHKNYLAWYQQKPGKAPKLLIYWASTRESGVPSRFSGSGSGTDFTFTISSLQPEDIATYYCHQYLSSWTFGQG
With B1 the “EC50 SUDHL1” value (SU-DHL-1 cells) was ~6.776 µg/mL, the “cytotoxicity against Daudi cells” value (Daudi cells) was “significant cytotoxicity” and the “cytotoxicity against Ramos cells” value (Ramos cells) was “significant cytotoxicity”. The “anti-tumor activity (mean tumour volume)” value (Ramos xenograft) was “most potent anti-tumor activity” and the “cytotoxicity against WSU-DLCL2 cells” value (WSU-DLCL2 cells) was “significant cytotoxicity”.
